Experimental data from publication PMC10695638.

Target: activated complement component C3 (C3b) (UniProt P01024)
Test: SPR

Q: Which response (RU), median, C3b-chip 2 does the source give for Factor B (natural protein) here?
A: Its response (RU), median, C3b-chip 2 is 17 RU.
